Two molecules from PMC3335097 (2012) can be followed below.

No end group written: not given here. *: point of attachment. MTSSL = spin label (R1), CC1(C)C=C(CS*)C(C)(C)N1[O]

Assay [1] deals with T1, p15 fragment of Caspase-8-cleaved mouse Bid (tBid) (Mus musculus (Mouse), UniProt P70444).
T1 chain: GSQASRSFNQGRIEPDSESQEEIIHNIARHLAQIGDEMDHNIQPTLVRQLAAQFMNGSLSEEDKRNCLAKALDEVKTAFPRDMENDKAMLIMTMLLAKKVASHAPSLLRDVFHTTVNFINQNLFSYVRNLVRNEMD
As to the kind of experiment: SEC co-elution as 20 kDa complex, with SDS-PAGE and CD melting; no detergent; detergent (DDM/OG) dissociates the fragments, cardiolipin liposomes only partly.

For assay [2], the target named is T2, p15 fragment of spin labeled cleaved mouse Bid (cBidR1), MTSSL on C126 (Mus musculus (Mouse), UniProt P70444, MTSSL spin label (R1) on C126).
T2 chain: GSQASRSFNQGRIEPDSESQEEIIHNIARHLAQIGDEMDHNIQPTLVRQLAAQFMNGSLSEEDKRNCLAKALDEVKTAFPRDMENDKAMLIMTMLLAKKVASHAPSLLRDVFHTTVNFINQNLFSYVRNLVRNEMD
As to the kind of experiment: DEER EPR (also cw EPR; Trp/Tyr fluorescence at 0.5 uM); no detergent; MTSSL on C30 and C126; 2% OG or 2% DDM dissociates (reversed by OG removal), cardiolipin liposomes only partly.

B1: p7 fragment of Caspase-8-cleaved mouse Bid (protein)
chain: MDSEVSNGSGLGAEHITDLLVFGFLQSSGCTRQELEVLGRELPVQAYWEADLEDELQTD
As for B1, in assay [1], the binding result was “binds”.

B2: p7 fragment of spin labeled cleaved mouse Bid (cBidR1), MTSSL on C30 (protein)
chain: MDSEVSNGSGLGAEHITDLLVFGFLQSSGC(MTSSL)TRQELEVLGRELPVQAYWEADLEDELQTD
B2: the binding result in assay [2] is recorded as “binds”.
